Data on 1 molecule can be found in paper PMC10447426 (2023).

The target in test [1] is T1, Fc fusion protein of mouse TNFR2 (mouse, UniProt P25119 23-258).
T1 chain: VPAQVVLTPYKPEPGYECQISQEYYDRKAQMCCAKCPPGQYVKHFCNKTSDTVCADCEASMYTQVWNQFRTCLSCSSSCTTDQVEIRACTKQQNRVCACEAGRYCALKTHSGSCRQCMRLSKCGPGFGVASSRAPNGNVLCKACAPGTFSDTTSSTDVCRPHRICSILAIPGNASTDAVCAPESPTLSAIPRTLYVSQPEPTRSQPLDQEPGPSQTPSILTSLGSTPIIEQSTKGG
Briefly: SPR; BIAcore X-100; Fc fusion proteins of mouse TNFR2 and mouse TNFR1 immobilised on CM5 chip by amine coupling; HBS-EP plus running buffer; single-cycle kinetics, five concentrations up to 100 nM, 2 min injection at 30 μl/min, 2 min dissociation; R2agoTNF fitted with a monovalent and scR2agoTNF-Fc with a bivalent model (avidity); n = 1.

Test [2] addresses T1, Fc fusion protein of mouse TNFR2. Briefly: SPR. Background: SPR reads the build-up and loss of mass on a sensor chip optically.

B1: R2agoTNF (ligand)
chain: VRSSSRTPSDMPVAHVVANPQAEGQLQWTNHGGNALLANGVELRDNQLVVPSEGLYLIYSQVLFSGQGCPSTHVLLTHTISRIAVSYQTPVNLLSAIRSPCQRETPEGAEANPWYEPIYLGGVFQLEPGDRLSAEINRPDYLNFPDSGEVYFGIIAL
In general, koff refers to a measure of how fast the partners let go of each other. For the molecule B1, in test [1], the Kd is 1.75 nM. The molecule further displayed a koff in test [2] of 0.00277 s⁻¹.
